Results reported in US7718391B2, “Assays for identifying modulators of rhomboid polypeptides” (Medical Research Council, priority 2001, dated 2010).

Experiments:
[1] = test system: T1, Drosophila Gurken
T1 sequence: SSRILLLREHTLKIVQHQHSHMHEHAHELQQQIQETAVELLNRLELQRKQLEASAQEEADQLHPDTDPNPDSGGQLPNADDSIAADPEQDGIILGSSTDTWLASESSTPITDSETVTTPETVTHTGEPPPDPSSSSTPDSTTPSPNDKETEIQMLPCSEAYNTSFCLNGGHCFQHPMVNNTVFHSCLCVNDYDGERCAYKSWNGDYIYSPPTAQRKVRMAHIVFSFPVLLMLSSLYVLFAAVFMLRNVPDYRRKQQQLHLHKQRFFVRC

[2] = target: T2, Drosophila EGF receptor (UniProt P04412)
T2 sequence: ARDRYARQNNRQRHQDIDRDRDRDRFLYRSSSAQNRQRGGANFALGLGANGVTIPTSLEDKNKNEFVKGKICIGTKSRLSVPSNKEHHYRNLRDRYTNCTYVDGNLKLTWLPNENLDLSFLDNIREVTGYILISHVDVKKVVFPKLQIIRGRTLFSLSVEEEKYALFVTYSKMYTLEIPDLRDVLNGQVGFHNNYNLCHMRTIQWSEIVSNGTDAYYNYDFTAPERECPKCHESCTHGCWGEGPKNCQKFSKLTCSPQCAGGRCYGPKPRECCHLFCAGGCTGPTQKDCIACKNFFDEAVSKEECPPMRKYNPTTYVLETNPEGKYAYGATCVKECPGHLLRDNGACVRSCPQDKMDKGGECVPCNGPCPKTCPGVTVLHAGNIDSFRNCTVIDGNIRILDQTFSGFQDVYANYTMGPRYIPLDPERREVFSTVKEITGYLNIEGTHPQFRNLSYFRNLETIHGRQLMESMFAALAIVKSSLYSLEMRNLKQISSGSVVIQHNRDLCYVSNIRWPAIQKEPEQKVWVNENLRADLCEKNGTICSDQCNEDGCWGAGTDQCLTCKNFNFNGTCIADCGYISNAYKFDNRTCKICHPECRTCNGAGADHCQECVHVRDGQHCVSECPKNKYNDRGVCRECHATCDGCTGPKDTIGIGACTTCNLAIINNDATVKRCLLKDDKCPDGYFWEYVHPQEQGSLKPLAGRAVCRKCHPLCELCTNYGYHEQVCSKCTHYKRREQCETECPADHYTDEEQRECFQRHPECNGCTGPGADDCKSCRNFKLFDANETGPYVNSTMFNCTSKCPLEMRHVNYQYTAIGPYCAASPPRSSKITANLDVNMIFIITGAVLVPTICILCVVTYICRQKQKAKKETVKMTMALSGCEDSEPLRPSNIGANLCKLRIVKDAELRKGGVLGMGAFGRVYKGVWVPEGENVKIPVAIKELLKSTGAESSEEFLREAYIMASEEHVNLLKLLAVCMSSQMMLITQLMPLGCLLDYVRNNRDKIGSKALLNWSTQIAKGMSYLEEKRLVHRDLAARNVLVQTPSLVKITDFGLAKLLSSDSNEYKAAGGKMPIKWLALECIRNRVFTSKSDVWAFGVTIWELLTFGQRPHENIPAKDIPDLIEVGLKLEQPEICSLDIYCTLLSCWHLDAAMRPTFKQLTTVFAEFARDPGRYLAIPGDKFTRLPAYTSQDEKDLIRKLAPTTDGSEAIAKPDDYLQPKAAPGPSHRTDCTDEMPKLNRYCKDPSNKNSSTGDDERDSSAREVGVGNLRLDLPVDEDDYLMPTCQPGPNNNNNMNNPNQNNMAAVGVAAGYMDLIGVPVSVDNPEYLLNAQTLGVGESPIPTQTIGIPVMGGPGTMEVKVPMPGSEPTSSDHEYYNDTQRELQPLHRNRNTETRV

[3] = test system: uncleavable Spitz-TGFα chimera (Spitz with residues 140-160 replaced by the equivalent residues from TGFα, with the TGFα C-terminus)
[4] = test system: T3, GFP-Spitz (Drosophila Spitz with EGFP inserted between residues 33 and 34)
T3 sequence: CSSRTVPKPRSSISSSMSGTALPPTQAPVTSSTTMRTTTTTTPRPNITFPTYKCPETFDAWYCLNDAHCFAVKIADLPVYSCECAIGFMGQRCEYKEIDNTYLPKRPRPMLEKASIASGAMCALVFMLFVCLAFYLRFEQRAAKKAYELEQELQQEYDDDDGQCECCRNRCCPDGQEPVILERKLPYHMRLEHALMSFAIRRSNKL

[5] = test system: human TGFα (EGFP inserted between residues 32 and 33)
[6] = test system: T4, Drosophila Keren
T4 sequence: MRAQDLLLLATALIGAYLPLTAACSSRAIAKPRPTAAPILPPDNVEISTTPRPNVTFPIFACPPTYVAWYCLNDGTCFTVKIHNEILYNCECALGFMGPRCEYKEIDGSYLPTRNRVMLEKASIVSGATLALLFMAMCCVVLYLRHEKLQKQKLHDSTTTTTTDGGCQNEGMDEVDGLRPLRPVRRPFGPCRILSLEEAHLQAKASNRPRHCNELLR

[7] = test system: zebrafish RHBDL2; assay: Zebrafish RHBDL2 knockout by antisense morpholino injection into embryos; format: in vivo, Zebrafish (Danio rerio); details: injected into 1-4 cell embryos at 2-4 μM, assessed after 24 and 48 hours
Procedure: Knockout of the zebrafish RHBDL2 was performed by standard procedures (McClintock J M, Kheirbek M A, Prince V E. 2002. Development. 129, 2339-2354.). A morpholino antisense oligonucleotide ([…]) SEQ.ID. 7 complementary to the region of the cDNA surrounding the start of translation was injected into 1-4 cell embryos at 2-4 μM. After 24 and 48 hours the phenotype was assessed and compared with wild-type embryos of equivalent stages. In situ hybridisation to RHBDL2 was performed by standard techniques.
To investigate the role of vertebrate Rhomboids, the zebrafish homologue of human RHBDL2 (sequenced from cDNA clone 2652120, GenBank accession number AW422344) was knocked out using the standard technology of antisense morpholino oligonucleotides (reviewed in Heasman J. Dev Biol. Mar. 15, 2002;243(2):209-14), which allows the rapid removal of a gene function. Zebrafish embryos are a common model system as their embryonic development is easily observed.

[8] = target: T5, Rhomboid-1 (Drosophila melanogaster, UniProt P20350); assay: Rhomboid-1 and Star dependent cleavage of GFP-Spitz in transfected COS cells (western blot of medium); format: cell-based; details: co-expressed with Star and full-length Rhomboid-1 in COS cells
T5 construct: When co-expressed with Star and full-length Rhomboid-1 in the COS cell Spitz cleavage assay; expressed in transfected cells; host or cells: COS cells, pcDNA3.1 constructs, transient transfection
T5 sequence (P20350 1-355): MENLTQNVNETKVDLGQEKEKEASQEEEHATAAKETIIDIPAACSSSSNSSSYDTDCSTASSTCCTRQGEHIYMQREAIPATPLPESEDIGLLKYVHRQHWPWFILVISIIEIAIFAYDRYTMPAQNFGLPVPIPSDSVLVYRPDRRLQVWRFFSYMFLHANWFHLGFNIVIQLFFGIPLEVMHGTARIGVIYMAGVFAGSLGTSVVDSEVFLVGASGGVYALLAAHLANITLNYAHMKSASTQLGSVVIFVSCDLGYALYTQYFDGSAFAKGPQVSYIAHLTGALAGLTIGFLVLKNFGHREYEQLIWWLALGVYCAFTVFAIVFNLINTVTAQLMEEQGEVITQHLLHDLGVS
Procedure: COS cells were grown in DMEM medium (supplemented with 10% foetal calf serum), and transfected with FuGENE 6 Transfection Reagent (Roche). Cells were transfected in 35 mm culture wells with 25-250 ng of each construct and empty plasmid to bring the total DNA to 1 μg per well. 24-30 hours post-transfection the medium was replaced with serum-free medium; this was harvested 24 hours later and cells were lysed in SDS-sample buffer. GFP was detected in conditioned medium and cell lysates by western blot with a rabbit polyclonal antibody. For some experiments the serum-free medium was supplemented with the metalloprotease inhibitor batimastat (British Biotech) or ilomostat (Calbiochem). Cells were transfected as standard with 1 ng of Rhomboid-1 DNA (in 1 μg total DNA) and were then incubated in serum-free medium for 24 hours. The medium was then replaced with 0.5 ml serum free medium containing protease inhibitor at the indicated concentration and incubated for 1 hour. After 1 hour, the medium was collected, cleared by centrifugation, dialysed overnight against several changes of water and lyophilised. The resulting pellets were re-suspended in SDS sample buffer, boiled and analysed by Western blot. Transfections with a secreted form of Spitz were used in parallel to control for non-specific toxicity of the protease inhibitors or general inhibition of the secretory pathway. The proteolytic cleavage assay was recapitulated in a mammalian tissue culture system. Spitz was tagged with GFP near its N-terminus and transiently expressed in COS cells, in the presence or absence of Star and/or Rhomboid-1. The accumulation of the soluble extracellular fragment of GFP-Spitz in the cell medium was then measured by western blot.

[9] = test system: release of TGFα; assay: Release/secretion of TGFα from transfected COS cells; format: cell-based, human; details: expression of truncated Rhomboid-1, compared with control
Procedure: COS cells were grown in DMEM medium (supplemented with 10% foetal calf serum), and transfected with FuGENE 6 Transfection Reagent (Roche). Cells were transfected in 35 mm culture wells with 25-250 ng of each construct and empty plasmid to bring the total DNA to 1 μg per well. 24-30 hours post-transfection the medium was replaced with serum-free medium; this was harvested 24 hours later and cells were lysed in SDS-sample buffer. GFP was detected in conditioned medium and cell lysates by western blot with a rabbit polyclonal antibody. For some experiments the serum-free medium was supplemented with the metalloprotease inhibitor batimastat (British Biotech) or ilomostat (Calbiochem).
Spitz, Star and Rhomboid-1 are the only Drosophila proteins present in the transfected mammalian cells. A possible hypothesis is that these proteins are able to recruit a mammalian protease to a processing complex. If this were the case, the principle candidate for the putative mammalian protease would be a member of the ADAM family of metalloproteases. These proteases have broad specificity and are responsible for the release of a large number of mammalian growth factors, including the Spitz homolog, TGFα. The possible involvement of these proteases was tested with the potent metalloprotease inhibitor batimastat (British Biotechnology) at 1 μM and 10 μM. […]

## Drosophila Rhomboid-4
[1]
  cleavage of polypeptide substrates: Rhomboid-4 cleaves all the polypeptide substrates tested so far, including ... Gurken
[2]
  cleavage of polypeptide substrates: Rhomboid-4 cleaves all the polypeptide substrates tested so far, including ... the completely unrelated Drosophila EGF receptor
[3]
  cleavage of polypeptide substrates: Rhomboid-4 cleaves all the polypeptide substrates tested so far, including ... the 'non-cleavable' Spitz/TGFα chimera
[4]
  cleavage of polypeptide substrates: Rhomboid-4 cleaves all the polypeptide substrates tested so far, including Spitz
[5]
  cleavage of polypeptide substrates: Rhomboid-4 cleaves all the polypeptide substrates tested so far, including ... human TGFα
[6]
  cleavage of polypeptide substrates: Rhomboid-4 cleaves all the polypeptide substrates tested so far, including ... Keren

## anti-sense morpholino oligo TCTTGCTCTTCGGTGTCATTATCGC: morpholino antisense oligonucleotide complementary to the region of zebrafish RHBDL2 cDNA surrounding the start of translation (all phosphorodiamidate morpholino (PMO))
[7]
  embryo phenotype after knockout: specific defects in the brain, the otic placode and the tail

B1: Rho-1-NTM1: residues 1 to 149 of Rhomboid-1: N-terminal cytoplasmic domain plus first TMD and part of first extracellular loop; dominant negative (protein, UniProt P20350 1-149, looked up, fragment)
chain: MENLTQNVNETKVDLGQEKEKEASQEEEHATAAKETIIDIPAACSSSSNSSSYDTDCSTASSTCCTRQGEHIYMQREAIPATPLPESEDIGLLKYVHRQHWPWFILVISIIEIAIFAYDRYTMPAQNFGLPVPIPSDSVLVYRPDRRLQ
[8]
  ability of wild-type Rhomboid-1 to promote GFP-Spitz cleavage: inhibited
[9]
  TGFα synthesis or secretion: did not interfere
